Experiments:
[1] = target: Aβ1-28 peptide, biotinylated (Anaspec); assay: ELISA, biotin-peptide on streptavidin, Ab 10 µg/ml; mean of 2, background subtracted; conditions: remark: other sources report otherwise
[2] = target: Aβ1-42 peptide; assay: cell-based or functional assay
[3] = target: Peptide 1 of the Aβ1-42 overlapping peptide library; assay: peptide library ELISA, Ab 10 µg/ml
[4] = target: Peptide 10 of the Aβ1-42 overlapping peptide library; assay: peptide library ELISA, Ab 10 µg/ml
[5] = target: Peptide 11 of the Aβ1-42 overlapping peptide library; assay: peptide library ELISA, Ab 10 µg/ml
[6] = target: Peptide 12 of the Aβ1-42 overlapping peptide library; assay: peptide library ELISA, Ab 10 µg/ml
[7] = target: Peptide 13 of the Aβ1-42 overlapping peptide library; assay: peptide library ELISA, Ab 10 µg/ml
[8] = target: Peptide 14 of the Aβ1-42 overlapping peptide library; assay: peptide library ELISA, Ab 10 µg/ml
[9] = target: Peptide 15 of the Aβ1-42 overlapping peptide library; assay: peptide library ELISA, Ab 10 µg/ml
[10] = target: Peptide 16 of the Aβ1-42 overlapping peptide library; assay: peptide library ELISA, Ab 10 µg/ml
[11] = target: Peptide 17 of the Aβ1-42 overlapping peptide library; assay: peptide library ELISA, Ab 10 µg/ml
[12] = target: Peptide 18 of the Aβ1-42 overlapping peptide library; assay: peptide library ELISA, Ab 10 µg/ml
[13] = target: Peptide 19 of the Aβ1-42 overlapping peptide library; assay: peptide library ELISA, Ab 10 µg/ml
[14] = target: Peptide 2 of the Aβ1-42 overlapping peptide library; assay: peptide library ELISA, Ab 10 µg/ml
[15] = target: Peptide 20 of the Aβ1-42 overlapping peptide library; assay: peptide library ELISA, Ab 10 µg/ml
[16] = target: Peptide 21 of the Aβ1-42 overlapping peptide library; assay: peptide library ELISA, Ab 10 µg/ml
[17] = target: Peptide 22 of the Aβ1-42 overlapping peptide library; assay: peptide library ELISA, Ab 10 µg/ml
[18] = target: Peptide 23 of the Aβ1-42 overlapping peptide library; assay: peptide library ELISA, Ab 10 µg/ml
[19] = target: Peptide 24 of the Aβ1-42 overlapping peptide library; assay: peptide library ELISA, Ab 10 µg/ml
[20] = target: Peptide 25 of the Aβ1-42 overlapping peptide library; assay: peptide library ELISA, Ab 10 µg/ml
[21] = target: Peptide 26 of the Aβ1-42 overlapping peptide library; assay: peptide library ELISA, Ab 10 µg/ml
[22] = target: Peptide 27 of the Aβ1-42 overlapping peptide library; assay: peptide library ELISA, Ab 10 µg/ml
[23] = target: Peptide 28 of the Aβ1-42 overlapping peptide library; assay: peptide library ELISA, Ab 10 µg/ml
[24] = target: Peptide 29 of the Aβ1-42 overlapping peptide library; assay: peptide library ELISA, Ab 10 µg/ml
[25] = target: Peptide 3 of the Aβ1-42 overlapping peptide library; assay: peptide library ELISA, Ab 10 µg/ml
[26] = target: Peptide 30 of the Aβ1-42 overlapping peptide library; assay: peptide library ELISA, Ab 10 µg/ml
[27] = target: Peptide 31 of the Aβ1-42 overlapping peptide library; assay: peptide library ELISA, Ab 10 µg/ml
[28] = target: Peptide 32 of the Aβ1-42 overlapping peptide library; assay: peptide library ELISA, Ab 10 µg/ml
[29] = target: Peptide 33 of the Aβ1-42 overlapping peptide library; assay: peptide library ELISA, Ab 10 µg/ml
[30] = target: Peptide 4 of the Aβ1-42 overlapping peptide library; assay: peptide library ELISA, Ab 10 µg/ml
[31] = target: Peptide 5 of the Aβ1-42 overlapping peptide library; assay: peptide library ELISA, Ab 10 µg/ml
[32] = target: Peptide 6 of the Aβ1-42 overlapping peptide library; assay: peptide library ELISA, Ab 10 µg/ml
[33] = target: Peptide 7 of the Aβ1-42 overlapping peptide library; assay: peptide library ELISA, Ab 10 µg/ml
[34] = target: Peptide 8 of the Aβ1-42 overlapping peptide library; assay: peptide library ELISA, Ab 10 µg/ml
[35] = target: Peptide 9 of the Aβ1-42 overlapping peptide library; assay: peptide library ELISA, Ab 10 µg/ml

Chain of Aβ1-42 peptide (peptide, as listed by the source): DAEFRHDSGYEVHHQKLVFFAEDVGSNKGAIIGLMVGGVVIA
Chain of Aβ1-28 peptide, biotinylated (Anaspec) (chain, as listed by the source): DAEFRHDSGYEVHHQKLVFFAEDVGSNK

B1: ACI-11-Ab-9 monoclonal antibody (antibody, V domains shown)
VL: QAVVTQESALTTSPGGTVILTCRSSTGAVTTSNYANWVQEKPDHLFTGLIGGTSNRAPGVPVRFSGSLIGDKAALTITGAQTEDDAMYFCALWYSTHYVFGGGTKVTVL
VH: QVQLQQSDAELVKPGASVKISCKVSGYTFTDHTIHWMKQRPEQGLEWIGYIYPRDGSTKYNEKFKGKATLTADKSSSTAYMQLNSLTSEDSAVYFCARDYGYAFDYWGQGTTLTVSS
modifications: here or on the partner: biotinylated (position not given)
O.D. [1]: 0.53 O.D.

B2: ACI-24-Ab-3 monoclonal antibody (antibody, IgG1, V domains shown)
VH: QVQLQQSGAELARPGASVKLSCKASGYTFTSYGIRWVKQRTGQGLEWIGEICPRSGNTYYNEKFKGKATVTADKSSSTAYMELRSLTSEDSAVYFCARSIYYGRPYYFDYWGQGTTLTVSS
VL: DIVMTQSQLFMSTSVGDRVSVTCKASQNVATNVAWYQQKPGQSPKALIYSASYRYSGVPDRFTGSGSGTDFTLTISNVQSEDLAEYFCQQYNSYPLTFGAGTKLELK
disaggregation of pre-aggregated Aβ1-42, thioflavin T assay, molar ratio 1:10 [2]: 20%
disaggregation of pre-aggregated Aβ1-42, thioflavin T assay, molar ratio 1:100 [2]: 12%
inhibition of Aβ1-42 aggregation, thioflavin T assay, antibody to Aβ1-42 molar ratio 1:10 [2]: 51%
inhibition of Aβ1-42 aggregation, thioflavin T assay, antibody to Aβ1-42 molar ratio 1:100 [2]: 26%
O.D. [3]: 0.32 O.D.
O.D. [4]: 0.2 O.D.
O.D. [5]: 0.23 O.D.
O.D. [6]: 0.34 O.D.
O.D. [7]: 0.23 O.D.
O.D. [8]: 0.3 O.D.
O.D. [9]: 0.32 O.D.
O.D. [10]: 0.34 O.D.
O.D. [11]: 0.31 O.D.
O.D. [12]: 0.3 O.D.
O.D. [13]: 0.3 O.D.
O.D. [14]: 0.26 O.D.
O.D. [15]: 0.22 O.D.
O.D. [16]: 0.21 O.D.
O.D. [17]: 0.21 O.D.
O.D. [18]: 0.2 O.D.
O.D. [19]: 0.18 O.D.
O.D. [20]: 0.23 O.D.
O.D. [21]: 0.25 O.D.
O.D. [22]: 0.26 O.D.
O.D. [23]: 0.26 O.D.
O.D. [24]: 0.27 O.D.
O.D. [25]: 0.37 O.D.
O.D. [26]: 0.29 O.D.
O.D. [27]: 0.31 O.D.
O.D. [28]: 0.31 O.D.
O.D. [29]: 0.26 O.D.
O.D. [30]: 0.36 O.D.
O.D. [31]: 0.32 O.D.
O.D. [32]: 0.34 O.D.
O.D. [33]: 0.3 O.D.
O.D. [34]: 0.21 O.D.
O.D. [35]: 0.19 O.D.

From patent US20100291097A1
